These results are taken from patent US20240108707A1, “CHAGAS DISEASE VACCINE ANTIGENS WITH IMPROVED STABILITY AND DECREASED AGGREGATION” (Baylor College of Medicine, priority 2019, published 2024).

Data set [1] is described as follows: Solubility of recombinant protein expressed in E. coli BL21(DE3) (SDS-PAGE of soluble fraction and inclusion bodies; 8M urea). To be noted: for solubility of protein as expressed in E. coli: E. coli BL21(DE3), induced with 0.5 mM IPTG. Type of data set: physicochemical. The procedure: FIGS. 3A and B. SDS-PAGE of expressed wild-type TSA-1-NT in E. coli BL21(DE3) induced with 0.5 mM IPTG from 0-16 hours.
FIGS. 6A and B. SDS-PAGE of expressed TSA-1-C4 in E. coli BL21(DE3) induced with 0.5 mM IPTG over 16 hours.
(§1) In order to develop as a recombinant protein vaccine that can be used in humans in endemic areas, the coding DNA for TSA-1-NT was identified and codon optimized for expression in E. coli. The synthesized DNA was cloned into pET41a, a bacterial expression vector with an IPTG inducible T7 promoter. The recombinant TSA-1-NT/pET41a plasmid DNA was transformed into E. coli BL21(DE3). […] The on-column refolded TSA-1-NT was soluble but aggregated when stored at 4° C. one month (FIG. 4C). Aggregation causes problems with reproducibility and consistency, and would prevent the protein from being developed into a vaccine formulation. We hypothesized that the reason for the aggregation was the interaction of four cysteine residues in the sequence of the molecule (C248, C267, C360, C447) that could lead to intermolecular disulfide bridges.
The coding DNA for TSA-1-C4 (SEQ ID NO: 5) was codon optimized for expression in E. coli, synthesized by GenScript, and cloned into pET41a with an octahistidine-tag (SEQ ID NO: 11, HHHHHHHH, shaded in FIG. 5A) or without an octahistidine-tag (SEQ ID NO: 3, FIG. 2 and FIG. 5B) expressed at its C-terminus. The recombinant plasmid DNAs were transformed into E. coli BL21(DE3) and selected on LB agar plates containing 30 μg/mL of kanamycin. The correct sequences and reading frames were confirmed by double-strand DNA sequencing with vector flanking primers.

Data set [2] is described as follows: Aggregation / stability of on-column refolded protein on storage, stirring and freeze-thaw (visual analysis, SDS-PAGE, Western blot). The data set is classed as physicochemical. The following applies: for aggregation of on-column refolded protein on storage: stored at 4° C. one month, SDS-PAGE (TSA-1-C4: in PBS, also visual analysis, Western blot). The procedure:
FIG. 4A-C. On-column refolding of TSA-1-NT. A, chromatographic profile of TSA-1-NT refolded by Size Exclusion Chromatography; B, samples were collected and analyzed by SDS-PAGE under non-reducing condition aggregates (a), and refolded protein (b and c); C, refolded TSA1-NT (b) after one month at 4° C. under reducing (lanes 1,3) and non-reducing conditions (lane 2).
FIGS. 10A, B and C. SDS-PAGE analysis of refolded TSA-1 C4 by Size-Exclusion Chromatography. A, the collected fractions of the main peak of seven consecutive refolding batches of denatured TSA-1 C4 (in 1.6×100 XK column packed with 185 ml of Sepharose 6FF) were analyzed by 10% SDS-PAGE under non-reducing conditions; batch1 (Lanes 2 and 3), batch 2 (Lanes 4 and 5), batch 3 (Lanes 6 and 7), batch 4 (Lanes 8 and 9), batch 5 (Lanes 10 and 11), batch 6 (Lanes 12 and 13), batch 7 (Lanes 14 and 15). B, Refolded TSA-1-C4 was stored at 4° C. in refolding buffer (lanes 1,4), Tris-HCl (lanes 2 and 5) and PBS (lanes 3 and 6) buffers. Samples were analyzed by SDS-PAGE under non-reduced conditions before (lanes 1, 2 and 3) and after one month (lanes 4, 5 and 6) of storage at 4° C. C, the stability of refolded TSA-1-C4 was tested by orbital stirring at 25 rpm and 20° C. for 24 (lane 2), 48 (lane 3) and 120 h (lane 4), and by cycles of freezing (−80° C.)-thawing at 24 h (lane 5), 48 (lane6) and (lane 7). Molecular Weight marker (lane 1).
as §1
However, and more importantly, and unlike TSA-1 NT, after purification on a nickel column or ion-exchange chromatography (FIGS. 8A and B) and refolding on a size-exclusion column (FIGS. 9A and B). The refolded TSA-1-C4 was concentrated by ultrafiltration, analyzed by SDS-PAGE (FIG. 10A) and it was stable.

Data set [3] has as its system T. cruzi. The following applies: mice; cited from earlier work.
The conditions of data set [4]: cited from earlier work.
Data set [5] concerns T. cruzi. The following applies: formulated with E6020-SE; versus Tc24+E6020-SE; cited from earlier work.
In a further data set the test system is H1 Trypanosoma cruzi. Kind of data set: Therapeutic vaccine efficacy: parasitemia in H1 Trypanosoma cruzi-infected mice. Type of data set: in vivo. To be noted: 20 μg antigen IM, acute infection, compared to untreated controls. On the procedure:
FIGS. 11A and B. Therapeutic effect of TSA-1-C4 alone or with Tc24-C4 and in a combination with or without benznidazole (BZN) treatment. H1 Trypanosoma cruzi-infected mice were treated with Tc24-C4 and TSA-1-C4, […] and given orally 25 mg/kg BZN per day for 20 days. A, Kinetic parasitemia was recorded each 3 days during the acute infection. Standard bars represent the error of the mean. B, Area under the curve (AUC) was graphed using the simple method of Gagnon. Histograms represent the mean and standard bars the error of the mean.
Briefly, H1 Trypanosoma cruzi-infected mice were treated with Tc24-C4 and TSA-1-C4, 20 μg each and given orally 25 mg/kg BZN per day for 20 days. Kinetic parasitemia was recorded each 3 days during the acute infection (FIG. 11A), and the area under the curve (AUC) was graphed (FIG. 11B).

Like-named read-outs stand apart in the source and are kept apart here.

Take “TSA-1-NT: N-terminal fragment of TSA-1 (aa 30-617), wild-type cysteines [reference compound]”: in data set [1], the “solubility in 8M urea” value is on record as “soluble in 8M urea” and the “solubility of protein as expressed in E. coli” value (from here on “solubility of protein”) is listed as “expressed as insoluble protein in inclusion body”. The “aggregation of on-column refolded protein on storage” value in data set [2] is “aggregated”. Further, the “aggregation when compounded into vaccine compositions” value in data set [2] (vaccine compositions) is “aggregates”. In addition, the protective immunity result in the data set on T. cruzi [3] was “induces protective immunity”.

B1: Tc24-C4: Recombinant T. cruzi Tc24 with 4 cysteine residues mutated to serine residues (protein)
chain: MGASGSKGSTSDKGLASDKDGKNAKDRKEAWERIRQAIPREKTAEAKQRRIELFKKFDKNETGKLSYDEVHSGSLEVLKLDEFTPRVRDITKRAFDKARALGSKLENKGSEDFVEFLEFRLMLSYIYDFFELTVMFDEIDASGNMLVDEEELKRAVPKLEAWGAKVEDPAALFKELDKNGTGSVTFDEFAAWASAVKLDADGDPDNVPESA
modifications: synthetic recombinant protein based on TSA1 from T. cruzi
notes: Recombinant T. cruzi Tc24 with 4 cysteine residues mutated to serine residues
On to B1, for which the “solubility of protein” value in data set [4] (E. coli (BL21)) is “soluble protein”. Further, the aggregation on storage result in data set [4] (purified protein stored at 4° C. for 9 days, Western blot, light-scattering, HPLC-RP) is “did not form any aggregation”. Moreover, the “protection (mouse survival rate and parasitemia levels in blood)” value with T. cruzi [5] is “similarly protected”.

B2: TSA-1-C4: Recombinant T. cruzi TSA-1 fragment, four cysteines mutated to serine (C248S, C267S, C360S, C447S), plus 43 C-terminal amino acids (protein)
chain: MERNSGDLQLPQEIAMLVPNKTQVVPKSGGEGKVKDIFASPALVRAGGVMIAFVEGRTKNKLFPEVIDLSSSDIVAGYIKAPETWQSLVAEVTKEYWQAHTVLESANNSNHRVGVARLPTGITRGNKVFLLVGSYEERREIDDYIWKAEAWNIKVIEGEATQSTEVQPTQPINWSEPKPLFQTDSPNNKGDLKEFLGGGGSGIVMGNGTLVFPLTAKDESNKVFSLITYSTDDGQKWEIPGGVSSVASRSPRVTEWEEGTLLMVTYSEDGRKVFESRDMGKTWTEAFGTLPGVWLKSGPELPEVSLRVDALITATIEGRKVMLYTQKVRHFLEVDEPNALHLWVTDNNRTFHLGPFSVDSAENKTFANTLLYSDDALHLLQAKGDHESTAVSLARLTEELNTINSVLSTWVQLDASFSESSIPTAGLVGFLSNTTSSGDTWIDGYRSMNATVTKAAKVENGFKFTGPGSRATWPVNSRWDIKQYGFVDYNFTIVAMATIHQVPSESTPLLGASLRGNKRTKLIGLSYGAGGKWETVYDGTKTVQGGTWEPGREYQVALMLQDGNKGFVYVDGVLVGNPAMLPTPEERWTEFSHFYFGGDEGDSGSDATLTDVFLYNRPLSVGELKMIKEVED
modifications: synthetic recombinant protein based on TSA1 from T. cruzi
notes: Recombinant T. cruzi TSA-1 fragment, four cysteines mutated to serine (C248S, C267S, C360S, C447S), plus 43 C-terminal amino acids
Consider B2, for which, in data set [1], the “solubility in 8M urea” value is reported as “soluble in 8M urea” and the “solubility of protein” value is recorded as “expressed as insoluble protein in inclusion bodies”. Moreover, the aggregation under stirring entry in data set [2] (after 120 h under orbital stirring, 25 rpm, 20° C.) is “No aggregation observed”. Besides, the “aggregation after cycles of freezing-thawing” value in data set [2] (freezing (−80° C.)-thawing at 24, 48 and 120 h) is on record as “No aggregation observed”. In data set [2], the “aggregation of on-column refolded protein on storage” value was “No aggregation observed”. For the same molecule, the “levels of parasites in the blood (parasitemia, AUC)” value in the data set with H1 Trypanosoma cruzi is on record as “significantly lower levels of parasites in the blood”.
